This assay has as its target EGFR kinase domain (UniProt P00533 696-1022, fluorescent dye attached through the His-tag). Kind of assay: MST.

This passage reports Kd results from patent US20240166702A1 (published 2024).

B1: Sorting Nexin 1 (SNX1) Bar domain (other)
chain: MNESDIWFEEKLQEVECEEQRLRKLHAVVETLVNHRKELALNTAQFAKSLAMLGSSEDNTALSRALSQLAEVEEKIEQLHQEQANNDFFLLAELLSDYIRLLAIVRAAFDQRMKTWQRWQDAQATLQKKREAEARLLWANKPDKLQQAKDEILEWESRVTQYERDFERISTVVRKEVIRFEKEKSKDFKNHVIKYLETLLYSQQQLAKYWEAFLPEAKAIS
In turn, B1 had a Kd of 2900 nM.

By Kd is commonly meant a measure of binding affinity in units of concentration.
